According to patent publication US20220031842A1 (JIANGSU HENGRUI MEDICINE, published 2022):

T1: LAG-3 extracellular domain with a Flag tag (human, UniProt P18627 23-434)
T1 construct: also called LAG-3-Flag; LAG-3-Flag antigen
T1 sequence: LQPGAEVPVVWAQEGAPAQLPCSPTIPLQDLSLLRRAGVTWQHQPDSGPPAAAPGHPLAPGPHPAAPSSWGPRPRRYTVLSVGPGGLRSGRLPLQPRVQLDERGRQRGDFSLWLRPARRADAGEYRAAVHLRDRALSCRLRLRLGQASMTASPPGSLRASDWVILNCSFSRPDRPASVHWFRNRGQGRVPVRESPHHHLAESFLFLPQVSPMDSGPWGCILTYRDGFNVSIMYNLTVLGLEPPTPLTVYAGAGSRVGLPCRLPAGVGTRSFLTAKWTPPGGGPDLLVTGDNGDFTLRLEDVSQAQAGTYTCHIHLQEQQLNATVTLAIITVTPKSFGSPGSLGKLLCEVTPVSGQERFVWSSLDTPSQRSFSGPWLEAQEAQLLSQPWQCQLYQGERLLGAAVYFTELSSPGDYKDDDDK

T2: Fusion protein of LAG-3 extracellular region and mIgG2a Fc (human)
T2 construct: Limits of the signal peptide are marked only by lost underlining; also called LAG-3-mFc; LAG-3-mFc fusion protein
T2 chain: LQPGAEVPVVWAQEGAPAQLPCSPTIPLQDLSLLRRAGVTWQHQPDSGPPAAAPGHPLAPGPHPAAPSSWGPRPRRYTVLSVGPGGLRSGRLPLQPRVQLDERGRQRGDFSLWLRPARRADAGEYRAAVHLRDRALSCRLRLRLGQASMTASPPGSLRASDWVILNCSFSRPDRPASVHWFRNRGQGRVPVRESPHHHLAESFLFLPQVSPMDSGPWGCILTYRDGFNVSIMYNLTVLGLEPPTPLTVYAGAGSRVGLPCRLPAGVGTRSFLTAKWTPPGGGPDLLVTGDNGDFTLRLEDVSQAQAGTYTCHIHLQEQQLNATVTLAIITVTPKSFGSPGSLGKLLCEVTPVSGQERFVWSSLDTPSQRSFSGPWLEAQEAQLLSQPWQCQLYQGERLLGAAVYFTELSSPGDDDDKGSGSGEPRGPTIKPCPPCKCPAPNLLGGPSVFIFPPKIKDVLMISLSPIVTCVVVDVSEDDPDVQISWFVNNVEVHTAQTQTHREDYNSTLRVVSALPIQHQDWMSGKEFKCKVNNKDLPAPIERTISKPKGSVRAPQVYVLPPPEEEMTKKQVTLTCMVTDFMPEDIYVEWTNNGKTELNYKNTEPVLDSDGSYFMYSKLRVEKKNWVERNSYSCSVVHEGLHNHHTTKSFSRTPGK


Assays:
[1] = target: T1, LAG-3 extracellular domain with a Flag …; test: SPR (Biacore), antibody captured on anti-human capture chip, LAG-3-Flag in flow
Text: 2. […] Then, the LAG-3-Flag antigen (produced in-house, SEQ ID NO:1) was flowed through the surface of the biochip, and the reaction signal was detected real time using a Biacore instrument to obtain the binding and dissociation curves, the value of affinity was obtained by fitting, see table 10 below. After each cycle of dissociation was finished in the experiment, the biochip was washed and regenerated with a regeneration solution provided in the human anti-capture kit.

[2] = target: T2, Fusion protein of LAG-3 extracellular …; test: ELISA, LAG-3-mFc captured by anti-mouse Fc on plate (which fusion: inferred)
Text: The binding ability of anti-LAG-3 antibody to human LAG-3 protein was detected by ELISA assay. LAG-3 fusion protein with Fc or mFc tag was immobilized into 96-well microtiter plate by binding to anti-Fc or anti-mFc antibody coated on the microtiter plate, the strength of the signal after the addition of the antibody was used to determine the binding activity of the antibody to LAG-3, the specific experimental method is as follows.
The goat anti-human Fc antibody (Jackson Immuno Research, Cat No. 109-005-008) or goat anti-mouse Fc antibody (Sigma, Cat No. M3534-1ML) was diluted to a concentration of 2 μg/ml with PBS buffer at pH 7.4 (Sigma, Cat No. P4417-100TAB), and added to a 96-well plate at a volume of 50 μl/well and then, the plate was incubated in the incubator at 37° C. for 2 hours. After discarding the liquid, the plates were blocked with 200 μl/well of blocking solution containing 5% skim milk (Bright Dairy, skim milk powder) in PBS, and incubated in the incubator at 37° C. for 2.5 hours or overnight at 4° C. (16-18 hours). After blocking, the blocking solution was discarded and the plate was washed 5 times with PBST buffer (PH7.4 PBS containing 0.05% tween-20). LAG-3-Fc fusion protein (SEQ ID NO:3, produced in-house) or LAG-3-mFc fusion protein (SEQ ID NO: 4, produced in-house) was diluted with sample diluent (PH7.4 PBS containing 1% BSA) to 1 μg/ml and was added to each well, 50 μl/well. Then the plate was incubated in the incubator at 37° C. for 1 h or overnight at 4° C. After incubation, the reaction solution in the plate was discarded, and the plate was washed with PBST for 6 times, and then was added with 50 μl/well of various concentrations of antibodies to be tested (hybridoma purified antibody or humanized antibody) which have been diluted with sample diluent, and the plate was incubated at 37° C. for 1 h. The plates was washed 5 times with PBST after incubation, and was added with 100 μl/well of goat anti-mouse (Jackson Immuno Research, Cat No. 115-035-003) or goat anti-human secondary antibody (Jackson Immuno Research, Cat No. 109-035-003) labeled with HRP, diluted in sample diluent, and the plate was incubated at 37° C. for 1 h.

[3] = target: T3, Fusion protein of LAG-3 extracellular region and hIgG1 Fc (human); test: competition: biotin-LAG-3-Fc binding to fixed Daudi cells, antibody titrated
T3 construct: Limits of the signal peptide are marked only by lost underlining; also called LAG-3-Fc; LAG-3-Fc fusion protein
T3 sequence (chain, as listed by the source limits assumed): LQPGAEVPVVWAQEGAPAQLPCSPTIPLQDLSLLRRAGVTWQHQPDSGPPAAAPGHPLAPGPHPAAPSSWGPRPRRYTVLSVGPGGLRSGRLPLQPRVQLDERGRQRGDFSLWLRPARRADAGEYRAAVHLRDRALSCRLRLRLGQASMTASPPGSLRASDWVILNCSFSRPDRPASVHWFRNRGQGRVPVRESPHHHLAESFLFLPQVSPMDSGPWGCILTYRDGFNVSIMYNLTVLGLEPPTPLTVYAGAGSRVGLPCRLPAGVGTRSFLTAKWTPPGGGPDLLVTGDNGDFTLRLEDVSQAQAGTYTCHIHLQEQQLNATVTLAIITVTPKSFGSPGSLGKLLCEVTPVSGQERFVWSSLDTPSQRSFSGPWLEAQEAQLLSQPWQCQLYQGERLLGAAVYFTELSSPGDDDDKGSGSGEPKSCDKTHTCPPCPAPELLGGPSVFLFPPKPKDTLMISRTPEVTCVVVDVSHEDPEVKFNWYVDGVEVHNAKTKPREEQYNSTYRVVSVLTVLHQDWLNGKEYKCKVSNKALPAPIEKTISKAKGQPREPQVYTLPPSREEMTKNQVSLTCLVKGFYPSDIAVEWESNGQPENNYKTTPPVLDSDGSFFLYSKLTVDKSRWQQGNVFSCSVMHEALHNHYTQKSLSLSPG
Description: Daudi cells (human leukemia cells, purchased from the cell bank in Chinese Academy of Sciences) were seeded in 96-well plate with a density of 3×10⁵/well. After centrifugation at 1000 rpm, the supernatant was discarded and then the plate was fixed with 4% PFA for 30 min at room temperature. The plate was washed 4 times with PBS after discarding the fixed solution, and the plate was blocked with 200 μl/well of blocking solution containing 5% skim milk (Bright Dairy, skim milk powder) diluted in PBS, and incubated at 37° C. for 2.5 hours. After blocking, the blocking solution was discarded and the plate was washed 5 times with PBST buffer (pH7.4 PBS containing 0.05% tween-20), added with 50 μl/well mixture of biotin-labeled (Biotin labeling kit, Dojindo Chemical, Cat No. LK03) LAG-3-Fc fusion protein (produced in-house, SEQ ID NO: 3) and gradient concentrations of the antibody to be tested, wherein the biotin-labeled LAG-3-Fc fusion protein has been diluted with sample diluent (PH7.4 PBS containing 1% BSA) at a final concentration of 0.4 μg/ml, and pre-mixed for an hour, then the plate was incubated at 37° C. for 1 h. The reaction solution was discarded and the plate was washed 5 times with PBST after incubation, 50 μl/well of HRP-labeled Streptavidin (Sigma, Cat No. 52438) diluted with sample diluent was added, and the plate was incubated at 37° C. for 1 h. After washing the plate 5 times with PBST, 50 μl/well of TMB chromogenic substrate (KPL, Cat No. 52-00-03) was added to each well, and incubated at room temperature for 5-15 min, the reaction was stopped by the addition of 50 μl 1M H₂SO₄ to each well. The OD value at a wavelength of 450 nm was read on NOVOStar microplate reader, and then the activity of the LAG-3 antibody in blocking the binding of the antigen to Daudi cells was calculated.

Binder | Kd [1] [nM] | EC50 [2] [nM] | IC50 [3] [nM]
Hu303-004 (antibody, human IgG4 S228P, kappa, V domains shown, Humanized mAb303) VH: QVQLVQSGAEVKKPGASVKVSCKASGYTFTDYYMNWVRQAPGQRLEWMGVINPYNGDTAYNQKFKGRVTITRDTSASTAYMELSSLRSEDTAVYYCARDDGYYDYYFDVWGQGTTVTVSS VL: DIQMTQSPSSLSASVGDRVTITCRASQDIGSRLNWYQQKPGKAPKLLIYATSTLDSGVPSRFSGSGSGTDFTLTISSLQPEDFATYYCLQLASSPPTFGGGTKVEIKR | 1.06 | 0.278 | 0.502
Hu303-009 (antibody, human IgG4 S228P, kappa, V domains shown, Humanized mAb303) VH: QVQLVQSGAEVKKPGASVKVSCKASGYTFTDYYMNWVRQAPGQRLEWMGVINPYNGDTAYNQKFKGRVTITVDKSASTAYMELSSLRSEDTAVYYCTRDDGYYDYYFDVWGQGTTVTVSS VL: DIQMTQSPSSLSASVGDRVTITCRASQDIGSRLNWYQQKPGKAPKLLIYATSTLDSGVPSRFSGSGSGTDFTLTISSLQPEDFATYYCLQLASSPPTFGGGTKVEIKR | 0.943 | 0.316 | 0.417
Hu303-005 (antibody, human IgG4 S228P, kappa, V domains shown, also called LAG-3 antibody Hu303-005; LAG3 antibody Hu303-005) VH: QVQLVQSGAEVKKPGASVKVSCKASGYTFTDYYMNWVRQAPGQRLEWMGVINPYNGDTAYNQKFKGRVTITRDTSASTAYMELSSLRSEDTAVYYCARDDGYYDYYFDVWGQGTTVTVSS VL: DIQMTQSPSSLSASVGDRVTITCRASQDIGSRLNWYQQKPGKAPKRLIYATSTLDSGVPSRFSGSRSGTDFTLTISSLQPEDFATYYCLQLASSPPTFGGGTKVEIKR | 0.0715 | 0.309 | 0.622
Hu303-006 (antibody, human IgG4 S228P, kappa, V domains shown, Humanized mAb303) VH: QVQLVQSGAEVKKPGASVKVSCKASGYTFTDYYMNWVRQAPGQRLEWMGVINPYNGDTAYNQKFKGRVTITRDTSASTAYMELSSLRSEDTAVYYCARDDGYYDYYFDVWGQGTTVTVSS VL: DIQMTQSPSSLSASVGDRVTITCRASQDIGSRLNWYQQKPGKAPKRLIYATSTLDSGVPKRFSGSRSGTDFTLTISSLQPEDFATYYCLQLASSPPTFGGGTKVEIKR | 0.0753 | 0.288 | 0.821
Hu229-011 (antibody, human IgG4 S228P, kappa, V domains shown, Humanized mAb229) VH: QVQLVQSGSELKKPGASVKVSCKASGYTFTTSGMSWVRQAPGQGLKWMGWINTYSGVPTYADDFKGRFVFSLDTSVSTAYLQISSLKAEDTAVYYCARDNYDARDVYYYAMDYWGQGTTVTVSS VL: DIQMTQSPSSLSASVGDRVTITCRASENIYSNLAWYQQKPGKSPKLLVYAATNLADGVPSRFSGSGSGTQYTLTISSLQPEDFATYYCQHFWITPWTFGGGTKVEIKR |  | 0.201 | 0.566
Hu229-016 (antibody, human IgG4 S228P, kappa, V domains shown, Humanized mAb229) VH: QVQLVQSGSELKKPGASVKVSCKASGYTFTTSGMSWVKQAPGQGLKWMGWINTYSGVPTYADDFKGRFVFSLDTSVSTAYLQISSLKAEDTATYFCARDNYDARDVYYYAMDYWGQGTTVTVSS VL: DIQMTQSPSSLSASVGDRVTITCRASENIYSNLAWYQQKPGKAPKLLIYAATNLADGVPSRFSGSGSGTDFTLTISSLQPEDFATYYCQHFWITPWTFGGGTKVEIKR |  | 0.154 | 0.875

More lines, now with the values ahead:

Kd [1] [nM] | EC50 [2] [nM] | IC50 [3] [nM] | Binder
0.491 | 0.232 | 0.467 | Hu303-014 (antibody, human IgG4 S228P, kappa, V domains shown, Humanized mAb303) VH: QVQLVQSGAEVKKPGASVKVSCKASGYTLTDYYMNWVRQAPGQRLEWMGVINPYNGDTAYNQKFKGRVTITVDKSASTAYMELSSLRSEDTAVYYCTRDDGYYDYYFDVWGQGTTVTVSS VL: DIQMTQSPSSLSASVGDRVTITCRASQDIGSRLNWYQQKPGKAPKLLIYATSTLDSGVPSRFSGSGSGTDFTLTISSLQPEDFATYYCLQLASSPPTFGGGTKVEIKR
0.0748 | 0.161 | 0.395 | Hu303-016 (antibody, human IgG4 S228P, kappa, V domains shown, Humanized mAb303) VH: QVQLVQSGAEVKKPGASVKVSCKASGYTLTDYYMNWVRQAPGQRLEWMGVINPYNGDTAYNQKFKGRVTITVDKSASTAYMELSSLRSEDTAVYYCTRDDGYYDYYFDVWGQGTTVTVSS VL: DIQMTQSPSSLSASVGDRVTITCRASQDIGSRLNWYQQKPGKAPKRLIYATSTLDSGVPKRFSGSRSGTDFTLTISSLQPEDFATYYCLQLASSPPTFGGGTKVEIKR
 | 0.145 | 0.36 | Hu303-022 (antibody, human IgG4 S228P, kappa, V domains shown, Humanized mAb303) VH: QVQLVQSGAEVKKPGASVKVSCKASGYTLTDYYMNWVRQAPGQRLEWIGVINPYNGDTAYNQKFKGRATLTVDKSASTAYMELSSLRSEDTAVYYCTRDDGYYDYYFDVWGQGTTVTVSS VL: DIQMTQSPSSLSASVGDRVTITCRASQDIGSRLNWLQQKPGKAFKRLIYATSTLDSGVPKRFSGSRSGTDFTLTISSLQPEDFATYYCLQLASSPPTFGGGTKVEIKR
 | 0.152 | 0.369 | Hu303-023 (antibody, human IgG4 S228P, kappa, V domains shown, Humanized mAb303) VH: QVQLVQSGAEVKKPGASVKVSCKASGYTLTDYYMNWVRQAPGQRLEWIGVINPYNGDTAYNQKFKGRATLTVDKSASTAYMELSSLRSEDTAVYYCTRDDGYYDYYFDVWGQGTTVTVSS VL: DIQMTQSPSSLSASVGDRVTLTCRASQDIGSRLNWLQQKPGGAFKRLIYATSTLDSGVPKRFSGSRSGTDFTLTISSLQPEDFADYYCLQLASSPPTFGGGTKVEIKR
